Laboratory results: the nanobody polyreactivity screen of Harvey et al. (2022)

experiment: yeast display, Sf9 membrane polyspecificity reagent, FACS + sequencing; frameworks hold sequencing errors
In short: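 In a synthetic yeast display library (Saccharomyces cerevisiae BJ5465), nanobody expression was induced with galactose for 36–48 hours. FACS gates were set low and high (top ~1%) using anti-HA fluorescence for expression and streptavidin fluorescence for binding of the Sf9 membrane reagent. Each polyreactivity label is drawn from the gate of origin.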

Sequence | polyreactivity (PSR sort gate)
QVQLVESGGGLVQAGGSLRLSCAASGYIFYYNTMGWYRQAPGKERELVAAISATGGRTYYADSVKGRFTISRDNAKNTVYLQMNSLKPEDTAVYYCAKRGISPYGYWGQGTQVTVSS | high polyreactivity
QVQLVESGGGLVQAGGSLRLSCAASGYIFYYYAMGWYRQAPGKERELVAAINRSGTSTYYADSVKGRFTISRDNAKNTVYLQMNSLKPEDTAVYYCAAVAGNKLYYWGQGTQVTVSS | high polyreactivity
QVQLVESGGGLVQAGGSLRLSCAASGYIIGRYVMGWYRQAPGNERELVAAITASGGSTNYADSVKGRFTISRDNAKNTVYLQMNSLKPEDTAVYYCAADYSWYYFDFEYWGQGTQVTVSS | high polyreactivity
QVQLVESGGGLVQAGGSLRLSCAASGYILFAYAMGWYRQAPGKERALVATITTSGGITYYADSVKGRFTISRDNAKNTVYLQMNSLKPEDTAVYYCAAAEGGGLVTYDYWGQGTQVTVSS | low polyreactivity
QVQLVESGGGLVQAGGSLRLSCAASGYILQINAMGWYRQAPGKERELVAAISISGGNTYYADSVKGRFTISRDNAKNTVYLQMNSLKPEDTAVYYCAAYRYYSYLVRYGLLLAYYYWGQGTQVTVSS | low polyreactivity
QVQLVESGGGLVQAGGSLRLSCAASGYILWNAIGWYRQAPGKERELVAAITSGGSTYYADSVKGRFSISRDNAKNTVYLQMNSRKPEDTAVYDCNQESYFDTYRRYDSWGQGTQETVSS | low polyreactivity
QVQLVESGGGLVQAGGSLRLSCAASGYILYPYAMGWYRQAPGKERELVAAIRQRGGSTYYADSVKGRFTISRDYAKNTVYLQMNSLKPEDTAVYYCAAYLSPKRALTRGYGYWGQGTQVTVSS | high polyreactivity
QVQLVESGGGLVQAGGSLRLSCAASGYISDTNAMGWYRQAPGKEREFVAVISSSVGSTYYADSVKGRFTISRDNAKNTVYLQMNSLKPEDTAVYYCNAEFNTVFLYWSLDSVRGYDYWGQGTQVTVSS | high polyreactivity
QVQLVESGGGLVQAGGSLRLSCAASGYIVRNAMGWYRQAPGKERELVAAISRRGGSTYYADSVKGRFTISRDNAKNTVYLQMNSLKPEDTAVYYCAKDKVIPSFDADYYYWGQGTQVTVSS | high polyreactivity
QVQLVESGGGLVQAGGSLRLSCAASGYIVTSYTMGWYIQAPGKERELVAAISASDGSTYADSVKGRFTISRDNAKNTVYLQMNSLKPEDTAVYYCNKAAYGGHRTSEQVGWVYLYDYWGQGTQVTVSS | low polyreactivity
QVQLVESGGGLVQAGGSLRLSCAASGYIYYYYAMGWYRQAPVKERELVAAITFSGGSTYYADSVKGRFTISRDNAKNTVYLQMNSLKPEDTAVYYCAKVELRDSALLGSDEYDYLGQGTQVTVSS | low polyreactivity
QVQLVESGGGLVQAGGSLRLSCAASGYLLGHYAMGWYRQATGKERELVAAISWSGGSTSYADSVKGRFTISRDKAKITFYLQMNSLKREDTAVYDCASAYYAYSRHAGGYWGQGTQVTVSS | low polyreactivity
QVQLVESGGGLVQAGGSLRLSCAASGYNFGWYAMGWYRQAPGKERELVAGISSAGSTNYADSVKGRFTISRDNAKNTVYLQMNSLKPEDTSVDYCARDKWGLRYAPTVDYWGQGTQVTVSS | high polyreactivity
QVQLVESGGGLVQAGGSLRLSCAASGYSFQKYGMGWYRQAPGKERELVAAITRSSGNTYYADSVKGRFTISRDTAKNTVYLQMNSLKPEDTAVYDCAAFYWGGVKYNYWGQGTQVTVSS | high polyreactivity
QVQLVESGGGLVQAGGSLRLSCAASGYSFRIYAMGWYRQAPGKERELVATITNGGSTHYADSEKGRFTISRDNAKNTVYLQMNSLKPEDTAVYYCAAYLPGWELRDYGYWGQGTQVTVSS | high polyreactivity
QVQLVESGGGLVQAGGSLRLSCAASGYSFSPNAMGWYRQEPGKDRELVAAISSGVSTDYADSVKGRFSISRDNAKNTVYLQMNSLKPEDTAVYYCAADDQYRVTLGYVYWGQGTQVTVSS | low polyreactivity
QVQLVESGGGLVQAGGSLRLSCAASGYTFAGNAMGWYRQAAGKERELVAAISRSGGRTYYADSVKGRFTISRDNAKNTVYLQMNSLNPEDTAVYYCAAYFPRTLFEFGYWGQGTQVTVSS | high polyreactivity
QVQLVESGGGLVQAGGSLRLSCAASGYTFALYAMGWYRQAPGKERELVAAITDSDGSTYADSVKGRFTISRDNAKNTVYLQMNSLKPEDNAVYYCAGRDPHLQGSSYLSYLTMDYWGQGTQVTVSS | low polyreactivity
QVQLVESGGGLVQAGGSLRLSCAASGYTFATKVMGWYRQAPGKERELVATITGSGGSTYYADSVKGRLTISRDNAKNTVYLQMNSLTPEDTAVYNCAARLYGWYYGGYTRYDYWGQGTQVTVSS | high polyreactivity
QVQLVESGGGLVQAGGSLRLSCAASGYTFCVYVMGWYRQAPGKERELVAAISGSTYYADSVKGRFTISRDNAKNTVYLQMNSLKPEDTAVYYCAAESYFFSPRTREKFDYWGQGTQVTVSS | low polyreactivity

Sequence | polyreactivity (PSR sort gate)
QVQLVESGGGLVQAGGSLRLSCAASGYTFDINAMGWYRQAPGKERELVADISANDGSTSYADSVKGRFTISRDNAKNTVYLQMNSLKPEDTAVYYCAADYIWNPTWSVGYGDPGYDYCGQGTQVTVSS | low polyreactivity
QVQLVESGGGLVQAGGSLRLSCAASGYTFDPNAMGWYRQAPGKERELVAAISRIGGSTYYADSVKGRFTISRDNAKNTVYLQMKSLKPEDTAVYYCAVDWYLTGHWADDYWGQGTQVTVSS | low polyreactivity
QVQLVESGGGLVQAGGSLRLSCAASGYTFDTNVMGWYRQEPGKERELVATITGSGGSTYYADSVKGRFTISRDNAKNTVYLEMNSLKPEDTAVYYCAAYCYRYSFHWLKRWPYDWGQGTQVTVSS | high polyreactivity
QVQLVESGGGLVQAGGSLRLSCAASGYTFDYYAMGWYRQAPGKERELVAAIRRGGSTYYADSVKGRFTISRDNAKNTVYLQMNSLKPEDTAVYYCAAVIYRDGTIYDYWGQGTQVTVSS | high polyreactivity
QVQLVESGGGLVQAGGSLRLSCAASGYTFEDNAMGWYRQAPRKESELVAAIDWSGDSTYYADSVKGRFTISRDNAKNTVYLQMNSLKPEDTAVYYCAADYTTWTDMDYWGQGTQVTVSS | low polyreactivity
QVQLVESGGGLVQAGGSLRLSCAASGYTFFFNVMGWYRQAPGKVRELVAAISYSGGSTNYADSVKGRFTISRDNAKNTVYLQMNSLKPEDTAVYYCNARSVSRNGYEDVYWGQGTQVTVSS | low polyreactivity
QVQLVESGGGLVQAGGSLRLSCAASGYTFFYMGWYRQAPGKEREFVAVITYSGGSTYYADSVKGRFTISRDNAKNTVYLQMNSLKPEDTAVYYCAAAVWHYGRPGYLDSGYDYWGQGTQVTVSS | low polyreactivity
QVQLVESGGGLVQAGGSLRLSCAASGYTFFYYAMGWYRQAPGKERELVASISWNGGSTYYADSVKGRFTISRDNGKNTVYLQMNSLKPEDTAVYYCAADSPRPRLTSYGYIGGEYYYWGQGTQVTVSS | low polyreactivity
QVQLVESGGGLVQAGGSLRLSCAASGYTFGHYVMGWYRQAPGKERELVAAISRSGGSTYYADSVKGRFTISRDNAKNTVYLQMNSLKPEDTAVYYCARGRIGGGAPGDKSSLNYYYWGQGTQVTVSS | high polyreactivity
QVQLVESGGGLVQAGGSLRLSCAASGYTFGSYAMGWYRPAPGKERELVAAITPGGSTYYADSVKGRFTISRDNAKNTVYLQMNSLKPEDTAVYYCNRATRYWKAYYWFKTMDYWGQGTQVTVSS | high polyreactivity
QVQLVESGGGLVQAGGSLRLSCAASGYTFGYYALGRYRPAPGKERELVAAISSGGITKYADSVKGRFTISRENAKNTVYLQMNSLKPEDTAVYYCAASWYRYRFIRYDYWGQGTQVTVSS | high polyreactivity
QVQLVESGGGLVQAGGSLRLSCAASGYTFGYYAMGWYRQAPGKERELVAAISYSGGNTYYADSVKGRFTISRDNAKNTVYLQMNSLKPEDTAVYYCNKRYWVRTGKVSSYAYWGQGTQVTVSS | high polyreactivity
QVQLVESGGGLVQAGGSLRLSCAASGYTFKAYAMGWYRQAPGKERELVAAISWSGARTYYADSVKGRFTISRDNAKNTVYLQMNSLKPEDTAVYYCAASNAVYAGRSYRDEFWGQGTQVTVSS | high polyreactivity
QVQLVESGGGLVQAGGSLRLSCAASGYTFKRNDMGWYRQAPGKERELVAAISKSGGSTYYADSVKGRFTISRDNAKNTVYLQMNSLKPEDTAVYYCPGPLPYYGQYDYWGQGTQVTVSS | low polyreactivity
QVQLVESGGGLVQAGGSLRLSCAASGYTFKYNAMGWYRQAPGKERELVAAISSRGDRTYYADSVKGRFTISRDNAKNTVYLQMNSLKPEDTVVYYCNKVARPRSRNDSWGQGTQVTVSS | high polyreactivity
QVQLVESGGGLVQAGGSLRLSCAASGYTFLDYAMGWYRQAPGKERELFAAINSGGSTYYADSVKGRFTISRDNAKNSVYFQMNSLNPEDTAVSYCAREDYVSYRLLYYLFDYWGQGTQVTVSS | low polyreactivity
QVQLVESGGGLVQAGGSLRLSCAASGYTFLVNAMGWYRQAPGKERELVAAISSGGSTYYADSVKGRFTISRDNAKNTVYLQMNSLKPEDTAVYYCAAPTDFLFWEFDYWGQGTQVTVSS | low polyreactivity
QVQLVESGGGLVQAGGSLRLSCAASGYTFNRNAMGWYIQAPGKERELVASITRRGGSTYYADSVKGRFTISRDNAKNTVYLQMNSLKPEDTAVYYCAVESIRTGDYWGQGTQVTVSS | high polyreactivity
QVQLVESGGGLVQAGGSLRLSCAASGYTFNRYAMGWYRQAPGKERELVAAITRGGTTYYADSVKGRFTISRDNAKNTVYLQMNSLKPEDTAVYYCNKFQPSGQYFKMGYWGQGTQVTVSS | high polyreactivity
QVQLVESGGGLVQAGGSLRLSCAASGYTFPIYAMGWYRQAPGKEREVVATISSGGRTNYADSVKGRFTISRDNAKNTVYLQMNSLKPEDTAVYYCNARRLGWHALYLYDYWGQGTQVTVSS | high polyreactivity
